Source: the supplement of paper PMC10567573
± gives the standard deviation.

Experiment: protein stability index of a GFP-peptide fusion (GPS, HEK-293T) (PSI 1-6); higher = more stable
[1] = treatment: DMSO, c terminus: a fixed tail appended
[2] = treatment: MLN4924 1 uM, 8 h, c terminus: a fixed tail appended
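Further: 24-mer peptide tiles fused after GFP, lentivirally expressed, FACS-sorted into six equal bins by GFP/DsRed ratio, decoded by Illumina sequencing, PSI is the read-weighted mean bin number.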

Sequence	protein stability index [1]	protein stability index [2]	protein stability index (treatment: DMSO, c terminus: native)	protein stability index (treatment: MLN4924 1 uM, 8 h, c terminus: native)
RNSTPPSLARNPAPGVLTNKRKTY [ZC2HC1A]	4.86 ± 0.21	4.68 ± 0.17		
DEEVSSLTCDALTELLAKITNTDV [CCND2]	4.04 ± 0.44	4.28 ± 0.078		
LKPNNLSCDLPEERYRHEIAHDGQ [KLHDC10]	4.8 ± 0.2	4.8 ± 0.074		
ENTCLLRGFSGGILAFLVLEAVAG [TSPAN10]	3.27 ± 0.15	2.58 ± 0.41		
LLHGLNLLWRKQLFCDVTLTAQGQ [KLHL14]	3.3 ± 0.17	2.88 ± 0.53		
HDAQVRLYKEELEQTYHAKLENAR [LMNB1]	3.99 ± 0.34	4.13 ± 0.14		
VQERLTKQIAVAITEALRPAGVGV [GCH1]	2.23 ± 0.2	2.17 ± 0.13		
CGSRRERCGYRLVRRQRSADEQLH [ESR2]	2.79 ± 0.36	2.93 ± 0.29		
VTDINDNAPKFQAENLDVKINENV [PCDHGA10]	5.22 ± 0.1	5.01 ± 0.37		
VMSGKMSVSKAQSIYGIPHSTLEY [LCOR]	2.38 ± 0.19	2.23 ± 0.076		
PDLESGSESGADTISVNQTRVNLS [DLC1]	5.12 ± 0.26	5.16 ± 0.2		
ESGVSVSNSQPTNESHSIKAILKN [SLC29A1]	5.03 ± 0.53	4.9 ± 0.46		
DASEAHESSSRGEAGAPGEEDIQG [CHGB]	5.69 ± 0.3	5.56 ± 0.28		
PSRREPPPRRSRSRSHDRLPYQRR [CLK3]	5.23 ± 0.19	5.23 ± 0.14		
RCGKFLQDGLPPTWRDFRTLEAFH [MED27]	2.17 ± 0.33	2.12 ± 0.18		
FLPGGDMMTLLMKKDTLTEEETQF [STK38L]	2.89 ± 0.6	3.44 ± 0.51		
VGCKGSKAGIEQEGYWLPGDEISI [ZMYND11]	3.18 ± 0.32	3.13 ± 0.31		
QDDHDHKVQELMSTHELEKKELEE [MTUS2]	5.59 ± 0.29	5.59 ± 0.33		
KPILLQRMEGSQEVVNMAVIVPKE [WDFY2]	3.7 ± 0.09	3.54 ± 0.4		
SRALALFDIQKIMQEKNPVHVIGV [ZNF8]	2.52 ± 0.27	1.89 ± 0.39		
DDEFFHFVLLCFAIGALLVCYHYY [TMEM40]	2.27 ± 0.39	2.37 ± 0.88		
VFIIRKSLLDELMEVQHFRTIYHM [SOAT2]	2.85 ± 0.61	2.58 ± 0.46		
RHRQEVLCKEMVPLAEQTPLTLQS [ZSCAN9]	4.31 ± 0.18	4.21 ± 0.077		

Sequence	protein stability index [1]	protein stability index [2]	protein stability index (treatment: DMSO, c terminus: native)	protein stability index (treatment: MLN4924 1 uM, 8 h, c terminus: native)
TFASLETVGIYFGLVYRIHSVLQG [TMEM40]	3.59 ± 0.44	3.24 ± 0.23		
TLRLEKLGHPALSQEEGKSALEDQ [PPFIA4]	5.38 ± 0.19	5.14 ± 0.21		
HSCTCVLYTPSNEHFGIVPLEAMY [ALG2]	2.43 ± 0.38	2.41 ± 0.22		
GFTNKQLQSGQEYVFFVLAVMEHA [PTPRD]	2.95 ± 0.76	2.39 ± 0.79		
YDGLDCQARQFRTFHHPTYGSCYT [SCNN1D]	2.54 ± 0.1	2.59 ± 0.18		
NLDKMADNLLAAADKYALERLKVM [SPOPL]	3.1 ± 0.44	3.04 ± 0.42		
LAALCLAGPPAPARACQLPSEWRP [CCDC3]	2.96 ± 0.2	2.92 ± 0.058		
EFSVPFTEMKLRPRNFRSPAGGG [TNXB]			3.4 ± 1.1	3.09 ± 1.1
DEPCAISGKWTFQRDSKRWSRLEE [DLC1]	3.99 ± 0.14	3.91 ± 0.33		
SENLEEETENIIAANHWVLPAAEF [TRIP13]	4.8 ± 0.26	4.61 ± 0.17		
RLMRDMAQLRLQLEVSQLEGSLQQ [SMG5]	2.39 ± 0.43	2.6 ± 0.3		
LIQRWYRRYVARLEMRRRCTWSIF [PPEF2]	2.43 ± 1.3	2.73 ± 0.57		
YSSEDSTLASVPPAATFGADDLVL [ELF3]	4.5 ± 0.13	4.48 ± 0.22		
AAVEGSGGSGGGSHHHHQSRGACT [KCNA4]	4.97 ± 0.16	4.7 ± 0.71		
PESADTGDKSESPDEANVGKHPKD [TOR1AIP2]	5.57 ± 0.14	5.601 ± 0.053		
KQLLSNKELILDKVYTHPKWNTQT [ZC2HC1C]	2.79 ± 0.14	3.15 ± 0.23		
PPPPPNEINPPPHTMEEEEDDDWG [EIF5]	5.48 ± 0.17	5.61 ± 0.22		
RYLTFFHNYNILIATLRVALPSVM [MCOLN1]	3.31 ± 0.65	3.05 ± 0.54		
MVHKRSHTGERPFQCNQCGASFTQ [IKZF1]	2.86 ± 0.25	2.97 ± 0.43		
VYRAELVGELNGYLRDSSPAPCAD [PWWP2B]	3.31 ± 0.21	3.52 ± 0.27		
NGLTPKKKIQVNSKPSIQPKPLLL [ATF6]	3.48 ± 0.17	3.32 ± 0.25		
HVEEHFQLLARRMQVDKKRVYLAT [FUT8]	2.32 ± 0.14	2.29 ± 0.45		
TDDSYSCHCLKGFTLNPDKKTCRR [MATN2]	3.27 ± 0.78	4.03 ± 0.7		

Sequence	protein stability index [1]	protein stability index [2]	protein stability index (treatment: DMSO, c terminus: native)	protein stability index (treatment: MLN4924 1 uM, 8 h, c terminus: native)
YHTSQSGDEMTSLSEYVSRMKETQ [HSP90AB1]	3.9 ± 0.25	3.96 ± 0.23		
IKALFRKGKVLAQQGEYSEAIPIL [FKBP8]	2.54 ± 0.38	2.36 ± 0.42		
MLRWLIGGGREPQGLAEKSPLQTI [WDR41]	2.33 ± 0.21	2.33 ± 0.23		
TPKCSSPRGQEGSRQDKPLSPAGS [YJU2B]	5 ± 0.23	5.21 ± 0.23		
RGRTQLFSLNPRSGSLITAGRIDR [PCDHGA10]	3.29 ± 0.13	3.31 ± 0.34		
SRGSPVRVKREFEPASAREAPASV [USP39]	4.47 ± 0.32	4.49 ± 0.35		
TYMSADDLRINLWNFEITNQSFNI [PPP2R2B]	2.43 ± 0.66	2.53 ± 0.3		
EKAAALERQLKVMASDHREALLDR [LRRC45]	4.41 ± 0.17	4.49 ± 0.46		
SVHVPGPHAMTIQELVDYVNARQK [PTPN9]	3.49 ± 0.34	3.47 ± 0.28		
PGKLFIGGLNRETNEKMLKAVFGK [RBMY1A1]	2.69 ± 0.12	2.86 ± 0.14		
SSSYSVSSPRSVDSYSSTQHVPEE [ATF6]	5.16 ± 0.14	4.99 ± 0.15		
PEVVQHEEFILLSQGEVEKLIKCD [KLHL12]	3.99 ± 0.4	3.86 ± 0.75		
TIEGTSDDLTVVDAASLRRQIIKL [MFF]	4 ± 0.34	4.08 ± 0.16		
LSQVELQAAPGALPVSSPEPPPAL [TRIM55]	4.79 ± 0.14	4.69 ± 0.21		
QFTKPNASLGDVQSGATISMPCST [SASS6]	4.14 ± 0.38	4.06 ± 0.69		
STPRPSITPTKKIELDRTIMPDGT [C2CD2L]	4.76 ± 0.24	4.87 ± 0.17		
LEDIYVMPEYRGQGIGSKIIKKVA [SAT2]	3.45 ± 0.37	3.79 ± 0.27		
DMKSLKQVLEMKNQQIHEQEKKIL [MTUS2]	4.23 ± 0.046	4.31 ± 0.33		
LSLDNSPLLQSIHQLDFVQVKASS [TRIM9]	2.73 ± 0.17	2.98 ± 0.42		
VDDFRLKYENELALRQSVEADING [KRT13]	4.67 ± 0.15	4.62 ± 0.2		
AKPEVLSIQWPGKRSSRRVQRHNS [NECAB1]	4.23 ± 0.2	4.37 ± 0.21		
YLLDRAVDSFETQRNGLVFIYDMC [PTPN9]	2.36 ± 0.47	2.29 ± 0.29		
RKEAYGKPVDIWACGVILYILLVG [CAMK2B]	2.95 ± 0.76	2.73 ± 0.7		

Sequence	protein stability index [1]	protein stability index [2]	protein stability index (treatment: DMSO, c terminus: native)	protein stability index (treatment: MLN4924 1 uM, 8 h, c terminus: native)
NRNQGLNRLMLAVRDMMANFHLND [TCF25]	2.1 ± 0.16	2.24 ± 0.37		
NNGIFQINSRRWCSNLTPNVPNVC [SPACA3]	2.6 ± 0.28	2.63 ± 0.25		
ARRTTRSEPIRRAGKSGTSTPTTP [MAP2]	4.66 ± 0.12	4.8 ± 0.12		
EGVIDSSDKEIVAEAERLDVKAMG [EIF5]	5.34 ± 0.12	5.35 ± 0.15		
IVLAACSDYFCAMFTSELSEKGKP [KLHL12]	2.76 ± 0.42	3.05 ± 0.64		
VRDGFSATFEKILESELLRGTQYS [PSD2]	2.29 ± 0.35	2.31 ± 0.12		
CKDFLCQFCAQRFGRKDHLTRHTK [PLAGL1]	2.63 ± 0.25	3.09 ± 0.64		
THLENPTRYHLQQARRQQVKQYLS [TFE3]	3.38 ± 0.17	3.64 ± 0.22		
RMSYGGSTCHAYSNTRDRYGRSWE [RBMY1A1]	2.62 ± 0.21	2.46 ± 0.099		
VTLKYEIKKLIYVHLVIWLLLVAK [JAGN1]	2.33 ± 0.52	2.27 ± 0.3		
KPQAPQKLDPTLSSCFFIESCGAQ	3.35 ± 0.28	3.15 ± 0.21		
FTKETTQKNFNNLYGTKGNYTSRV [TRIM29]	2.26 ± 0.42	2.61 ± 0.27		
GLSPSIDTLDHIRALDRLQEVPHE [PPP2CA]	4.91 ± 0.22	4.87 ± 0.14		
GCIAAENCIGIRDFALHYCLHHVH [GAN]	2.72 ± 0.25	2.53 ± 0.33		
LAEVAPVVTTEHILVSVAAGVSLS [PYCR3]	2.22 ± 0.27	2.44 ± 0.21		
EVEEADGNKQWWFGGGCDLTPTYL [CPOX]	3.43 ± 0.49	3.36 ± 0.39		
VAPATWSAGVPPSAPLQGAVPPTS [SNAP91]	4.38 ± 0.25	4.39 ± 0.29		
ATAASSSASSPASVGDPCGGAICG [SLC25A25]	4.9 ± 0.34	4.85 ± 0.11		
STLPSLREEEEQVRAHAPRGNAPP [KCNG1]	4.43 ± 0.23	4.91 ± 0.35		
CRLKKCFRAGMKKEAVQNERDRIS [HNF4A]	3.22 ± 0.27	3.44 ± 0.25		
